Patent US20020037533A1 (University of California, published 2002)

Target: T1, myc-tagged PSD95 (UniProt P31016 1-724)
T1 construct: also called PSD-95 myc; PSD-95-myc; not shown: myc tag
Test: co-immunoprecipitation from HEK 293T cells stably expressing Flag-tagged GPR10, transfected with myc-tagged PSD95
Procedure: Forty-eight hours after transfection, cells were washed once in PBS and lysed with IP buffer (1% triton X-100, 25 mM Tris, pH 7.4, 50 mM NaCl, 5 mM EDTA, 5 mM EGTA, 0.1 mM phenylmethylsulphonyl fluoride (PMSF), aprotinin, leupeptin, and bacitracin). Immunoprecipitation was performed using 2 μg anti-Flag M2 antibody (Sigma) or 1 μg anti-myc antibody (Roche) followed by 25 μl protein G-agarose (Sigma). Immunoprecipitation was carried out overnight at 4° C. Immunoprecipitated proteins were resolved on SDS-PAGE, transferred to PVDF membrane. Western blotting was performed to detect GRIP using anti-GRIP antibody (1:1000). ABP-myc, PSD-95-myc, and PICK1-myc were detected using the monoclonal anti-myc antibody (1:500, Clontech).
To determine whether GPR10 interacts specifically with AMPA receptor interacting proteins, myc-tagged ABP and myc-tagged PSD95 were transfected into cell lines expressing wild type and mutant Flag-tagged GPR10.

T1 sequence (P31016 whole entry): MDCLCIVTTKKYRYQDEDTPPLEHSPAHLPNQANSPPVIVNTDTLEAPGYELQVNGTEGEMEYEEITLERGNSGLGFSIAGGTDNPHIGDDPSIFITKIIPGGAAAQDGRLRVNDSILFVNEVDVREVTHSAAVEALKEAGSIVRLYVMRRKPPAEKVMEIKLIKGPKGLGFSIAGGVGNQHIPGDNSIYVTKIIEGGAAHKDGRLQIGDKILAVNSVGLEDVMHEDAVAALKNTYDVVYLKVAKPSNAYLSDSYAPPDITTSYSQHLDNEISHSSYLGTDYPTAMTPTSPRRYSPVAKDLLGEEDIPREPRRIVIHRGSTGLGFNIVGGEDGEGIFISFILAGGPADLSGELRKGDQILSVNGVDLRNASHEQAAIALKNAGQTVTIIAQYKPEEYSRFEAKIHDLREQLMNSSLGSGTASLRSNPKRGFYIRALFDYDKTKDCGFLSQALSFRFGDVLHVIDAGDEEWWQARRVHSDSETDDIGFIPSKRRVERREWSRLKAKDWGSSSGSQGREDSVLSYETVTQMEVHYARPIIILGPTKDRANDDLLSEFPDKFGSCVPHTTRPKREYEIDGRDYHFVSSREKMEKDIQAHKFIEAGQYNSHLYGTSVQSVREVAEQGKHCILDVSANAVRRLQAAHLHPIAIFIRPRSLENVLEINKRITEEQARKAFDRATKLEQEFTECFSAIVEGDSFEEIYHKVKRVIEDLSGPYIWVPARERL

B1: Flag-tagged GPR10 (wild type) (receptor, UniProt P49683 1-370, looked up)
chain: MASSTTRGPRVSDLFSGLPPAVTTPANQSAEASAGNGSVAGADAPAVTPFQSLQLVHQLKGLIVLLYSVVVVVGLVGNCLLVLVIARVRRLHNVTNFLIGNLALSDVLMCTACVPLTLAYAFEPRGWVFGGGLCHLVFFLQPVTVYVSVFTLTTIAVDRYVVLVHPLRRRISLRLSAYAVLAIWALSAVLALPAAVHTYHVELKPHDVRLCEEFWGSQERQRQLYAWGLLLVTYLLPLLVILLSYVRVSVKLRNRVVPGCVTQSQADWDRARRRRTFCLLVVIVVVFAVCWLPLHVFNLLRDLDPHAIDPYAFGLVQLLCHWLAMSSACYNPFIYAWLHDSFREELRKLLVAWPRKIAPHGQNMTVSVVI
notes: whole, on cells; Expressed in HEK 293T or COS7 cells; immunoprecipitated from Triton lysates with anti-Flag M2; also called Flag GPR10 WT; PrRP receptor; not shown: Flag tag
binding result: no binding
